Measurements as given in IntAct's records for PubMed 29039417.

B1: Protein PTHB1 (Homo sapiens), Q3SYG4 (parent)
chain: MSLFKARDWWSTILGDKEEFDQGCLCLANVDNSGNGQDKIIVGSFMGYLRIFSPHPAKTGDGAQAEDLLLEVDLRDPVLQVEVGKFVSGTEMLHLAVLHSRKLCVYSVSGTLGNVEHGNQCQMKLMYEHNLQRTACNMTYGSFGGVKGRDLICIQSMDGMLMVFEQESYAFGRFLPGFLLPGPLAYSSRTDSFLTVSSCQQVESYKYQVLAFATDADKRQETEQQKLGSGKRLVVDWTLNIGEQALDICIVSFNQSASSVFVLGERNFFCLKDNGQIRFMKKLDWSPSCFLPYCSVSEGTINTLIGNHNNMLHIYQDVTLKWATQLPHIPVAVRVGCLHDLKGVIVTLSDDGHLQCSYLGTDPSLFQAPNVQSRELNYDELDVEMKELQKIIKDVNKSQGVWPMTEREDDLNVSVVVSPNFDSVSQATDVEVGTDLVPSVTVKVTLQNRVILQKAKLSVYVQPPLELTCDQFTFEFMTPDLTRTVSFSVYLKRSYTPSELEGNAVVSYSRPTDRNPDGIPRVIQCKFRLPLKLICLPGQPSKTASHKITIDTNKSPVSLLSLFPGFASQSDDDQVNVMGFHFLGGARITVLASKTSQRYRIQSEQFEDLWLITNELILRLQEYFEKQGVKDFACSFSGSIPLQEYFELIDHHFELRINGEKLEELLSERAVQFRAIQRRLLARFKDKTPAPLQHLDTLLDGTYKQVIALADAVEENQGNLFQSFTRLKSATHLVILLIALWQKLSADQVAILEAAFLPLQEDTQELGWEETVDAAISHLLKTCLSKSSKEQALNLNSQLNIPKDTSQLKKHITLLCDRLSKGGRLCLSTDAAAPQTMVMPGGCTTIPESDLEERSVEQDSTELFTNHRHLTAETPRPEVSPLQGVSE
partner: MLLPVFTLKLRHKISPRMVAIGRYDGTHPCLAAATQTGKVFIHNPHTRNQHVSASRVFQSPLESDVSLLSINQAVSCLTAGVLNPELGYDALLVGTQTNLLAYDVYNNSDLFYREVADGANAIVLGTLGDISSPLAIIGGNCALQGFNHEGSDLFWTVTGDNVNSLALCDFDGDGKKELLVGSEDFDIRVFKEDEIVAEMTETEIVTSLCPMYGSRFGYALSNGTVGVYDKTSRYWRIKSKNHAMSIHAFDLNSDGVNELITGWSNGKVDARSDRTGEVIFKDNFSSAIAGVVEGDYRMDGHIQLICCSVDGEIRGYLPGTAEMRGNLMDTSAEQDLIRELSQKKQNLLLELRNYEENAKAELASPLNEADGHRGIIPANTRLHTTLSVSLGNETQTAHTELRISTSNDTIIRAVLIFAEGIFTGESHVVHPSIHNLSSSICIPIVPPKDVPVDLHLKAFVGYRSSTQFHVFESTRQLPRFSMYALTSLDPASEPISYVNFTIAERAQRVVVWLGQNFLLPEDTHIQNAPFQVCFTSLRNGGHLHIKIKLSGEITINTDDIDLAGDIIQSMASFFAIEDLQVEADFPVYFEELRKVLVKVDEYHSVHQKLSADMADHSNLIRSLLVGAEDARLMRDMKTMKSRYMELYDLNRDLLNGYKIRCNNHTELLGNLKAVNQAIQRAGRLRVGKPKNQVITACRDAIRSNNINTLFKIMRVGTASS

Variants of: B1
Settings: with bbs2_human BBS2, Q9BXC9

Variant	effect of a mutation on the interaction
E668K	with no effect
E668A	with no effect
H651E	with no effect
H651K	with no effect
H651A	with no effect
Q672E	with no effect
Q672K	with no effect
Q672A	with no effect
I649K	with no effect
I649A	with no effect
I649E	with no effect
V671E	with no effect
V671K	with no effect
V671A	with no effect
Q643E	with no effect
Q643A	with no effect
Q643K	with no effect
E664K	with no effect
E664A	with no effect
P689E	with no effect
P689S	disrupting interaction strength
P689K	with no effect
P689A	with no effect

Variant	effect of a mutation on the interaction
Q677K	with no effect
Q677E	with no effect
Q677Y	disrupting interaction strength
Q677A	with no effect
A682K	with no effect
A682E	with no effect
R679G	disrupting interaction strength
R679K	with no effect
R679E	with no effect
R679A	with no effect
F684K	with no effect
F684E	with no effect
F684A	with no effect
A633K	with no effect
A633E	with no effect
A633V	disrupting interaction strength
P641E	with no effect
P641A	with no effect
P641K	with no effect
A675H	disrupting interaction strength
A675K	with no effect
A675E	with no effect
D650K	with no effect

Variant	effect of a mutation on the interaction
D650E	with no effect
D650A	with no effect
S637E	with no effect
S637A	with no effect
S637K	with no effect
A690E	disrupting interaction strength
A690F	disrupting interaction strength
C634E	with no effect
C634K	with no effect
C634A	with no effect
I676E	with no effect
I676K	with no effect
I676A	with no effect
T688K	with no effect
T688E	disrupting interaction strength
T688A	disrupting interaction strength
F673K	disrupting interaction strength
F673E	with no effect
F673A	with no effect
L681K	with no effect
L681E	with no effect
L681A	with no effect
R674K	with no effect

Variant	effect of a mutation on the interaction
R674E	with no effect
R674P	disrupting interaction strength
R674A	with no effect
S639K	with no effect
S639E	with no effect
S639A	with no effect
L665K	with no effect
L665R	disrupting interaction strength
L665A	with no effect
L665E	with no effect
V629E	with no effect
V629K	with no effect
V629A	with no effect
I657A	with no effect
I657K	with no effect
I657E	with no effect
K685A	with no effect
K685E	with no effect
E654K	with no effect
E654A	with no effect
S667A	with no effect
S667K	with no effect
S667E	with no effect

Variant	effect of a mutation on the interaction
L666A	with no effect
L666K	with no effect
L666E	with no effect
R669E	with no effect
R669K	with no effect
R669A	with no effect
F632E	with no effect
F632K	with no effect
F632A	with no effect
H652K	with no effect
H652E	with no effect
H652A	with no effect
A670E	with no effect
A670T	disrupting interaction strength
A670K	with no effect
K630E	with no effect
K630A	with no effect
R678K	with no effect
R678E	with no effect
R678A	with no effect
Y645E	with no effect
Y645A	with no effect
Y645K	with no effect

Variant	effect of a mutation on the interaction
D686K	with no effect
D686E	with no effect
D686A	with no effect
R656K	with no effect
R656A	with no effect
R656E	with no effect
E660K	with no effect
E660A	with no effect
L680E	with no effect
L680K	with no effect
L680A	with no effect
N658K	with no effect
N658E	with no effect
N658A	with no effect
F653E	with no effect
F653A	with no effect
F653K	with no effect
G638A	with no effect
G638K	with no effect
G638E	with no effect
K661A	with no effect
K661E	with no effect
L662E	with no effect

Variant	effect of a mutation on the interaction
L662K	with no effect
L662A	with no effect
D631A	with no effect
D631K	with no effect
D631E	with no effect
F646E	with no effect
F646A	with no effect
F646K	with no effect
G659E	with no effect
G659K	with no effect
G659A	with no effect
E647K	with no effect
E647A	with no effect
S635E	with no effect
S635A	with no effect
S635K	with no effect
E663K	with no effect
E663A	with no effect
I640K	with no effect
I640E	with no effect
I640A	with no effect
G628A	with no effect
G628K	with no effect

Variant	effect of a mutation on the interaction
G628E	disrupting interaction strength
K687E	with no effect
K687A	with no effect
L648A	with no effect
L648K	with no effect
L648E	with no effect
L642E	with no effect
L642A	with no effect
L642K	with no effect
L655K	with no effect
L655A	with no effect
L655E	with no effect
E644K	with no effect
E644A	with no effect
R683E	with no effect
R683A	with no effect
R683K	with no effect
F636E	with no effect
F636K	with no effect
F636A	with no effect
